What all share (test): other fluorescence titration
The target of test [1] is CyPet-Myo1^IQ12-YPet FRET reporter protein (S. pombe).
Test [2] addresses CyPet-Myo1^IQ1-YPet FRET reporter protein (S. pombe).
Test [3] concerns the target CyPet-Myo1^IQ12-S742D-YPet FRET reporter protein (S. pombe).
The target of test [4] is CyPet-Myo1^IQ12-YPet FRET reporter protein (S. pombe). This is another data set of the same source.
Test [5] deals with CyPet-Myo1^IQ1-YPet FRET reporter protein (S. pombe). This is another data set of the same source.

Read-outs that look alike come from different tables or passages of the source.

Usually Kd stands for the equilibrium constant for the complex coming apart. Higher therefore signals weaker binding. Turning to “Cam1 (fission yeast calmodulin), amino-terminally acetylated (from UniProt P05933 1-150) (natural protein)”, in test [1], the KD of the first binding event is under 100 nM and the KD of the second binding event was 680 nM. The dissociation constant Kd in test [2] is under 100 nM.

B1: Cam2 (fission yeast calmodulin-like protein) (natural protein)
chain: MPASKEQTDEMKEAFVLYDIDKDGLIPTSHVGSVLRSLGINVTDAELAKLSNELGDAIDEKKFMSFVSNKLRETESEEEYIKAFRVFDKDNSGYIETAKFADYMKTLGEKLSDNEVQLMVQEADPTNSGSFDYYDFVQRIMAK
Broadly, the stoichiometry N is a count of units in the complex or per binding partner. Take B1: the values for the Kd in test [3] and in test [5] were 250 nM and 400 nM, respectively. Further, the results for the stoichiometry N in test [3] and in test [4] were 1 and 2, respectively. The same molecule had a KD of the phase with 70% of the signal change in test [4] of 1100 nM.

Source of the values: publication doi:10.1101/498865.
